Source: US20240390531A1 (IMAGINAB, published 2024)
Substitutions are numbered along the chain they refer to. Numbers in names are those of the source.

Assays:
[1] = molecular target: FAP (UniProt Q12884 26-760, limits assumed); test: binding kinetics, method not stated (FIG. 42B)
[2] = molecular target: T1, purified murine FAP antigen (murine, UniProt P97321 26-761, limits assumed); test: ELISA, cross-reactivity (FIG. 57B)
[3] = molecular target: T2, purified human FAP antigen (human, UniProt Q12884 26-760, limits assumed); test: ELISA, plate coated with purified human FAP antigen (FIG. 56A-56C)
Description: (§1) Binding kinetics of the novel antigen binding constructs to a purified human FAP antigen was assessed using ELISA. For this assay, a 96 well ELISA plate was coated with the human-FAP antigen diluted to a concentration of 2 mg/mL in coating buffer (0.05M sodium carbonate-bicarbonate buffer, pH 9.6). 100 μl of this coating solution was added to each well in the plate and incubate at 4° C. overnight. The plate was washed 3 times with 300 μl per well of washing buffer (PBS with 0.05% Tween-20). After the last wash, the plate was blocked by adding to each well 200 μl of blocking buffer (PBS with 1% BSA) warmed to room temperature. The plate was then incubated at room temperature for 1 hour under gentle agitation. After blocking, the plate was washed 3 times with 300 μl per well of washing buffer. Dilution samples for each minibody were created by making 2.5× dilutions from a starting sample at 100 ng/mL, or 250 ng/mL, or 1000 ng/mL or 3000 ng/mL in 100 μL sample buffer (PBS with 1% BSA). The dilution samples were transferred to the assay plate and incubated at room temperature for 1 hour under gentle agitation. The plate was then washed 3 times with 300 μl per well of washing buffer.
(§2) Detection was performed by adding 100 μl of HRP labeled detection secondary antibody at an appropriate dilution and incubating the plate at room temperature for 1 hour under gentle agitation. The plate was then washed 3 times with 300 μl per well of washing buffer. For color development, 100 μl of TMB substrate regent, pre-warmed to room temperature, was added to the plate and incubated in the dark at room temperature for 15 min. The reaction was then stopped by adding 100 μl of 650 nm stop solution to the plate and mixed for 1 min at room temperature under gentle agitation. The plate is recorded by reading OD at 650 nm in a plate reader within 20 min after terminating the reaction.

[4] = molecular target: T2, purified human FAP antigen; test: ELISA, plate coated with purified human FAP antigen (FIG. 56F-56G)
Description: as §1, §2

[5] = molecular target: T1, purified murine FAP antigen; test: ELISA, cross-reactivity (FIG. 57A)
[6] = molecular target: T2, purified human FAP antigen; test: ELISA, plate coated with purified human FAP antigen (FIG. 91F)
Description: as §1

[7] = molecular target: T2, purified human FAP antigen; test: ELISA, plate coated with purified human FAP antigen (FIG. 91B)
Description: as §1

[8] = molecular target: T1, purified murine FAP antigen; test: ELISA, cross-reactivity (FIG. 92)
[9] = molecular target: T2, purified human FAP antigen; test: ELISA, plate coated with purified human FAP antigen (FIG. 91D)
Description: as §1

[10] = molecular target: T2, purified human FAP antigen; test: ELISA, plate coated with purified human FAP antigen (FIG. 91E)
Description: as §1

T1 sequence (P97321 26-761 limits assumed): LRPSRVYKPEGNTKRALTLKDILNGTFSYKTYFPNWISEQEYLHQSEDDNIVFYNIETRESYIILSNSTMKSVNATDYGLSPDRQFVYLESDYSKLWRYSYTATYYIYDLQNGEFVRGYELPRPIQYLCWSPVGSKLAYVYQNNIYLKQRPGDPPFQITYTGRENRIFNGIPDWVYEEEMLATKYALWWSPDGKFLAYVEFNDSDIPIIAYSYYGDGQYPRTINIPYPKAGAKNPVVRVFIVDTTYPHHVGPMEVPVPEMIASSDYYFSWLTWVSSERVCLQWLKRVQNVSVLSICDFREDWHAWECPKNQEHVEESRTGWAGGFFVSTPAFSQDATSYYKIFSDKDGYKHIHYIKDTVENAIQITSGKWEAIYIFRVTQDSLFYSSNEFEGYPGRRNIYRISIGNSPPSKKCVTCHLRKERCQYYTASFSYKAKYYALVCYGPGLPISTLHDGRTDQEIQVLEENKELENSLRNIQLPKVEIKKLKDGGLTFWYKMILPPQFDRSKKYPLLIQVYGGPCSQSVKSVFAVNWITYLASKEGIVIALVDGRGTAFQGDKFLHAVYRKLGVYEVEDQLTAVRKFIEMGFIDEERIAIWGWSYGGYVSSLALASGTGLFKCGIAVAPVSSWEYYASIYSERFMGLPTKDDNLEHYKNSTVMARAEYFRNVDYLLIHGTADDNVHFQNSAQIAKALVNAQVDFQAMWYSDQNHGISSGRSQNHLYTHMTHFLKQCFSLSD

B1: IAB16M2-37 (other)
chain: QVQLVQSGAEVKKPGASVKVSCKASGYTFTEYTIHWVRQAPGQRLEWIGGINPNNGIPNYNQKFKGRVTITVDTSASTAYMELSSLRSEDTAVYYCARRRIAYGYDEGHAMDYWGQGTLVTVSSGSTSGGGSGGGSGGGGSSDIVMTQSPDSLAVSLGERATINCKSSQSLLYSRNQKNYLAWYQQKPGQPPKLLIFWASTRESGVPDRFSGSGSGTDFTLTISRLEPEDFAVYYCQQYYSYPLTFGQGTKVEIKEPKSSDKTHTCPPCPPCGGGSSGGGSGGQPREPQVYTLPPSREEMTKNQVSLTCLVKGFYPSDIAVEWESNGQPENNYKTTPPVLDSDGSFFLYSKLTVDKSRWQQGNVFSCSVMHEALHNHYTQKSLSLSPG
notes: also called IAB16B2-37
[1]
  Kd: 1.15 nM
  koff: 0.00108 s⁻¹
  kon: 935000 M⁻¹ s⁻¹
[2]
  fold change of KD, murine FAP against human FAP: ~10 fold
[3]
  Kd: ~0.1 nM

B2: IAB16C3-26 (other)
chain: EIVLTQSPGTLSLSPGERATLSCRASQSVSRSYLAWYQQKPGQAPRLLIIGASTRATGIPDRFSGSGSGTDFTLTISRLEPEDFAVYYCQQGQVIPPTFGQGTKVEIKGGGSGGGGEVQLLESGGGLVQPGGSLRLSCAASGFTFSSHAMSWVRQAPGKGLEWVSAIWASGEQYYADSVKGRFTISRDNSKNTLYLQMNSLRAEDTAVYYCAKGWLGNFDYWGQGTLVTVSSGGCPPCPPC
[4]
  Kd: ~1 nM
[5]
  binding result: binds

B3: IAB16M1-49 (other)
chain: DIQMTQSPSSLSASVGDRVTITCKASQDVGIAVAWYQQKPGKAPKLLIYWASTRHTGVPSRFSGSGSGTDFTFTISSLQPEDIATYYCQQYSRYPYTFGQGTKLEIKGSTSGGGSGGGSGGGGSSDVQLVESGGGLVKPGGSLRLSCTVSGFTFSSYTMSWVRQAPGKGLEWVSTISSGGSYTYYADSVKGRFTISRDNAKNSLYLQMNSLRAEDTAVYYCTRDQVGYAMDYWGQGTLVTVSSEPKSSDKTHTCPPCPPCGGGSSGGGSGGQPREPQVYTLPPSREEMTKNQVSLTCLVKGFYPSDIAVEWESNGQPENNYKTTPPVLDSDGSFFLYSKLTVDKSRWQQGNVFSCSVMHEALHNHYTQKSLSLSPG
[6]
  Kd: ~1 nM

B4: IAB16M1-42 (other)
chain: DIQMTQSPSSLSASVGDRVTITCKASQDVSTAVAWYQQKPGKAPKLLIYSASYRYTGVPSRFSGSGSGTDFTFTISSLQPEDIATYYCQQHYSNPRTFGGGTKVEIKGSTSGGGSGGGSGGGGSSQVQLQESGPGLVKPSETLSLTCTVSGFSLTNYDINWIRQPPGKGLEWIGLIWTGGGTNYNPSLKSRVTISKDTSKNQFSLKLSSVTAADTAVYYCVRGGPLVWYALDYWGQGTLVTVSSEPKSSDKTHTCPPCPPCGGGSSGGGSGGQPREPQVYTLPPSREEMTKNQVSLTCLVKGFYPSDIAVEWESNGQPENNYKTTPPVLDSDGSFFLYSKLTVDKSRWQQGNVFSCSVMHEALHNHYTQKSLSLSPG
[7]
  Kd: ~0.1 nM

B5: IAB16M2-43 (other)
chain: QVQLQESGPGLVKPSETLSLTCTVSGFSLTNYDINWIRQPPGKGLEWIGLIWTGGGTNYNPSLKSRVTISKDTSKNQFSLKLSSVTAADTAVYYCVRGGPLVWYALDYWGQGTLVTVSSGSTSGGGSGGGSGGGGSSDIQMTQSPSSLSASVGDRVTITCKASQDVSTAVAWYQQKPGKAPKLLIYSASYRYTGVPSRFSGSGSGTDFTFTISSLQPEDIATYYCQQHYSNPRTFGGGTKVEIKEPKSSDKTHTCPPCPPCGGGSSGGGSGGQPREPQVYTLPPSREEMTKNQVSLTCLVKGFYPSDIAVEWESNGQPENNYKTTPPVLDSDGSFFLYSKLTVDKSRWQQGNVFSCSVMHEALHNHYTQKSLSLSPG
[8]
  binding result: binds
[7]
  Kd: ~0.1 nM

B6: IAB16M2-51 (HC-N76S) (other)
chain: B5 chain with T73N
[9]
  Kd: ~0.1 nM

B7: IAB16M2-52 (other)
chain: B5 chain with Q140V
[10]
  Kd: ~0.1 nM

B8: IAB16M2-53 (other)
chain: B5 chain with N76S
[10]
  Kd: ~0.1 nM

B9: IAB16M2-48 (other)
chain: QVQLVQSGAEVKKPGSSVKVSCKASGFSLTNYDINWVRQAPGQGLEWMGLIWTGGGTNYNQKFQGRVTITKDNSTSTAYMELSSLRSEDTAVYYCVRGGPLVWYALDYWGQGTLVTVSSGSTSGGGSGGGSGGGGSSDIQMTQSPSSLSASVGDRVTITCKASQDVSTAVAWYQQKPGKAPKLLIYSASYRYTGVPSRFSGSGSGTDFTLTISSLQPEDFATYYCQQHYSNPRTFGQGTKVEIK
[9]
  Kd: ~0.1 nM

B10: IAB16M2-50 (other)
chain: DVQLVESGGGLVKPGGSLRLSCTVSGFTFSSYTMSWVRQAPGKGLEWVSTISSGGSYTYYADSVKGRFTISRDNAKNSLYLQMNSLRAEDTAVYYCTRDQVGYAMDYWGQGTLVTVSSGSTSGGGSGGGSGGGGSSDIQMTQSPSSLSASVGDRVTITCKASQDVGIAVAWYQQKPGKAPKLLIYWASTRHTGVPSRFSGSGSGTDFTFTISSLQPEDIATYYCQQYSRYPYTFGQGTKLEIKEPKSSDKTHTCPPCPPCGGGSSGGGSGGQPREPQVYTLPPSREEMTKNQVSLTCLVKGFYPSDIAVEWESNGQPENNYKTTPPVLDSDGSFFLYSKLTVDKSRWQQGNVFSCSVMHEALHNHYTQKSLSLSPG
[6]
  Kd: ~10 nM
